Target: PAH2 domain of mSin3A
Test: fluorescence polarisation

Chain of PAH2 domain of mSin3A (Q60520 whole entry, the tested form may be a part): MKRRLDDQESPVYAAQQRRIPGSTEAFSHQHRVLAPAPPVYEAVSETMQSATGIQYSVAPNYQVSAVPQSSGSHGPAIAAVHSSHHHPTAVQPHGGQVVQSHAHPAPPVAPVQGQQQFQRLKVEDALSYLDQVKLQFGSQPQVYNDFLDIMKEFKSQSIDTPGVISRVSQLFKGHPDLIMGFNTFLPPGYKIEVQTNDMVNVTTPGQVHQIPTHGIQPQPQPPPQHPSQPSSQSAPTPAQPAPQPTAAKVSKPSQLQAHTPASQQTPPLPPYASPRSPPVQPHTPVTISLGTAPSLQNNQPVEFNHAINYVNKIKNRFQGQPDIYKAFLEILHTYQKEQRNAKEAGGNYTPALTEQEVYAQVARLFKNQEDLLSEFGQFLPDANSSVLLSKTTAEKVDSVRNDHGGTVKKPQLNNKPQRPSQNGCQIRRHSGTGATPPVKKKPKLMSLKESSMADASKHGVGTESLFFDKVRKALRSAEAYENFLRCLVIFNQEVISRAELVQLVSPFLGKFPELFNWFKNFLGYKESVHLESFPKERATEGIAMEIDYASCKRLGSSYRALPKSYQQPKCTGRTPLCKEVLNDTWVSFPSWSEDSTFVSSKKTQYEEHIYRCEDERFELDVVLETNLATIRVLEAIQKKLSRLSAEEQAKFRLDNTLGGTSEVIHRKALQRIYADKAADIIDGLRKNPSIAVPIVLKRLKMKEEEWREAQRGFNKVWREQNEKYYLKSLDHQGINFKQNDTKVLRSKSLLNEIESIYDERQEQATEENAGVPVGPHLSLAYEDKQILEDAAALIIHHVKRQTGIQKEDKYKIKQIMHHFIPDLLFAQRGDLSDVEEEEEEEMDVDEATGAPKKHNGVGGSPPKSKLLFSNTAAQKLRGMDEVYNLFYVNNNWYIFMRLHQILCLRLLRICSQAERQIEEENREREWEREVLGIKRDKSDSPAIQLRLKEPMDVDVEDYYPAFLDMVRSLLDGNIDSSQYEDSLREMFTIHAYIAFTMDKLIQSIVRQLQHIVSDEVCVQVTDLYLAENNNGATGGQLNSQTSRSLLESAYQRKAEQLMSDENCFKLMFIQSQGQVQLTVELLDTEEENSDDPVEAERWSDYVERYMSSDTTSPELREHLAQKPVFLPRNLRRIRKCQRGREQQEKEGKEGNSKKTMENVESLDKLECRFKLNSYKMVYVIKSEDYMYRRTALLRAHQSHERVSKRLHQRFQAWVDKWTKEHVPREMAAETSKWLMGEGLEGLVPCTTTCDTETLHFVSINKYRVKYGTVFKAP

Substance PF1-SID peptide has an IC50 of 15.6 µM.

Substance Tat-SID (MAD-SID peptide) has an IC50 of 1.26 µM.

Reference: publication PMC4741438, “Targeting the SIN3A-PF1 interaction inhibits epithelial to mesenchymal transition and maintenance of a stem cell phenotype in triple negative breast cancer” (Oncotarget, 2015)
